{
  "source": "patent CN109081868A",
  "about": "(INST PASTEUR SHANGHAI CAS, dated 2018)",
  "binders": {"B1": {"name": "单克隆抗体5F8 (antibody, V domains shown)", "VH": "QVQLQQSGAELVRPGVSAKISCKASGYIFTDYAMHWVKQSHAKSLEWIGLISTKSGAANYNQKFTDKATLTVDKSSSTAYLELARLTSEDSAIYYCARNDYLAWLPYWGQGTLVTVSA", "VL": "DVLMTQTPLSLPVSLGDHASISCRSSQSIVHSNGNTYLEWYLQKPGQSPKLLIYKVSYRFSGVPDRFSGSGSGTDFTLKISRVEAEDLGVYYCFQGSHVPWTFGGGTKLEIK", "notes": "also called 单抗5F8; 重组5F8"}},
  "molecular_target": "T1, ZIKV E80 (寨卡病毒包膜蛋白N端80%区域, 氨基酸1-409) (Zika virus (2015 South American …, UniProt A0A024B7W1 291-699))",
  "T1 construct": "also called ZKE80",
  "T1 sequence (A0A024B7W1 291-699)": "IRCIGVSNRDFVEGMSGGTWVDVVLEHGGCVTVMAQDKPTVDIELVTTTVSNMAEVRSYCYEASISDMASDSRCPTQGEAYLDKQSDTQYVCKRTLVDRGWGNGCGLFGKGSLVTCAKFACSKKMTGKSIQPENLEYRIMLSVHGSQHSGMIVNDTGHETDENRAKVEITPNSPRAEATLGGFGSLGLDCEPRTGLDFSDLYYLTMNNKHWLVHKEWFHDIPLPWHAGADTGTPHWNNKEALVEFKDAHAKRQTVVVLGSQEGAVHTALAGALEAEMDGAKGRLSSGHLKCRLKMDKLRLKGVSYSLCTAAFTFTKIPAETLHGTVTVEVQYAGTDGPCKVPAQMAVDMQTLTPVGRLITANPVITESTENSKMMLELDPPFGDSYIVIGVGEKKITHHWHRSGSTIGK",
  "assay": "BLI (Octet-Red), biotinylated ZIKV E80 on streptavidin sensor, antibody at 40-0.064 ug/ml in solution",
  "data": [
    {"binder": "B1", "values": [
      {"measurement": "Kd", "result": 15, "unit": "nM"}
    ]}
  ]
}
